Data published in PMC8161422.

Assays:
[1] = target: alpha-synuclein 5Q mutant E114Q;E123Q;E126Q;E137Q;E139Q (UniProt P37840); assay: pH electrode (Orion Star A211 meter, Orion ROSS combination micro electrode) before and after fibril formation; closed-system proton balance; conditions: fibril formation at 37 °C, temperature of the pH reading not stated, no added salt (pure water; protein and its counter-ions only), none (Milli-Q water; the protein is the only buffer)
His50 = His50 (UniProt position 50, KEGVVHGVATV); assay: NMR; conditions: No added salt is implied by the Table 1 footnote 'in absence of salt'. Ionic strength is otherwise not stated.; 20 mM sodium phosphate buffer, pH 7 (as described in this article); protein 250 µM; free monomer, intrinsically disordered, no fibrils; cited from earlier work
[2] = target: alpha-synuclein, wild type (UniProt P37840); assay: NMR pH titration (quoted from Croke et al. 2011, ref 30); conditions: 20 mM sodium phosphate buffer, pH 7 (so in the source); cited from earlier work
[3] = target: alpha-synuclein, wild type (UniProt P37840); assay: NMR pH titration (quoted from Croke et al. 2011, ref 30); Asp and Glu values averaged by the present authors; conditions: in absence of salt (Table 1 footnote d), not stated for the Asp/Glu values ('in buffer'); cited from earlier work
[4] = target: alpha-synuclein, wild type (UniProt P37840); assay: pH electrode (Orion Star A211 meter, Orion ROSS combination micro electrode) before and after fibril formation; closed-system proton balance; conditions: fibril formation at 37 °C, temperature of the pH reading not stated, no added salt (pure water; protein and its counter-ions only), none (Milli-Q water; the protein is the only buffer)

For “alpha-synuclein 5Q mutant E114Q;E123Q;E126Q;E137Q;E139Q”, the “change of sample pH on fibril formation” value ([1]; pH 6.4-6.6) was “pH increases by only 0.2 units, from pH 6.4 (monomer) to pH 6.6 (fibrils), 20 uM in water” and the apparent pKa(ave) of acidic groups in fibrils, average over the remaining acidic groups (five fewer than wild type) of the 5Q mutant ([1]; pH 6.6) was 4.7 pH units.
In the case of alpha-synuclein (Homo sapiens), the pKa (His50) is given as 6.78.
For alpha-synuclein, wild type, the pKa, His50 of alpha-synuclein (monomer) [2] is listed as 6.78 pH units, the pKa in C-terminal tail of α-synuclein (Asp), average of Asp residues in the C-terminal tail of monomeric alpha-synuclein [3] is listed as 4.2 pH units and the pKa in C-terminal tail of α-synuclein (Glu), average of Glu residues in the C-terminal tail of monomeric alpha-synuclein [3] is listed as 4.6 pH units. The pKa in N-terminal and NAC region of α-synuclein (Asp), average of Asp residues in the N-terminal and NAC regions (first 100 residues) of monomeric alpha-synuclein [3] was 3.6 pH units, the pKa in N-terminal and NAC region of α-synuclein (Glu), average of Glu residues in the N-terminal and NAC regions (first 100 residues) of monomeric alpha-synuclein [3] was 4.2 pH units and the pKa in full length α-synuclein monomer (Asp), average of all Asp residues of monomeric alpha-synuclein [3] was 4 pH units. The pKa in full length α-synuclein monomer (Glu), average of all Glu residues of monomeric alpha-synuclein [3] was 4.4 pH units, the “change of sample pH on fibril formation” value ([4]; pH 5.6-6.5) was “pH increases by 0.9 units, from pH 5.6 (monomer) to pH 6.5 (fibrils), 20 uM in water” and the “protons taken up per monomer during fibril formation” value ([4]; pH 5.6-6.5) was “about 2 protons per monomer”. For the same substance, the apparent pKa(ave) of acidic groups in fibrils, average over all acidic groups (Asp, Glu and the C-terminus) of alpha-synuclein ([4]; pH 6.5) was 5.4 pH units.
